Data reported in patent publication US20250243282A1 (TRUEBINDING, published 2025).

Assays:
[1] = target: T1, human Gal3 protein (recombinant human Galectin-3) (human, UniProt P17931 2-250); test: BLI binding activity, long-term stability 5°C, 3 months
T1 construct: also called hGal3; hGAL3

[2] = target: T1, human Gal3 protein (recombinant human …); test: BLI binding activity, accelerated stability 25°C/60% RH, 0 months
[3] = target: T1, human Gal3 protein (recombinant human …); test: ELISA blocking assay (blocked partner not stated), in-use stability bag #1, 0.5 h
[4] = target: T2, Recombinant human Gal3 (rhGal3) (TrueBinding, #QC200361) (human, UniProt P17931 2-250); test: cell-based or functional assay
[5] = target: T1, human Gal3 protein (recombinant human …); test: ELISA blocking assay (blocked partner not stated), in-use stability bag #1, 0 h; Bag #1, 0 h
[6] = target: T1, human Gal3 protein (recombinant human …); test: ELISA biological activity, accelerated stability 25°C/60% RH, 3 months
[7] = target: T1, human Gal3 protein (recombinant human …); test: ELISA biological activity, accelerated stability 25°C/60% RH, 1 month
[8] = target: T1, human Gal3 protein (recombinant human …); test: ELISA blocking assay (blocked partner not stated), in-use stability bag #2, 0.5 h
[9] = target: T1, human Gal3 protein (recombinant human …); test: BLI binding activity, accelerated stability 25°C/60% RH, 3 months
[10] = target: T2, Recombinant human Gal3 (rhGal3) …; test: cell-based or functional assay; remark: listed apart in the source
[11] = target: T1, human Gal3 protein (recombinant human …); test: ELISA blocking assay (blocked partner not stated), in-use stability bag #2, 4 h
[12] = target: T1, human Gal3 protein (recombinant human …); test: method not stated (FIG. 20)
mouse Gal3 = mouse Gal3 (mouse, UniProt P16110 2-264); test: method not stated (FIG. 20)
[13] = target: T1, human Gal3 protein (recombinant human …); test: BLI binding activity, accelerated stability 25°C/60% RH, 1 month
[14] = target: T1, human Gal3 protein (recombinant human …); test: ELISA biological activity, long-term stability 5°C, 0 months; 5° C., 0 months
[15] = target: T1, human Gal3 protein (recombinant human …); test: ELISA biological activity, accelerated stability 25°C/60% RH, 0 months
[16] = target: T1, human Gal3 protein (recombinant human …); test: BLI binding activity, long-term stability 5°C, 0 months
[17] = target: T1, human Gal3 protein (recombinant human …); test: BLI binding activity, long-term stability 5°C, 1 month
[18] = target: T1, human Gal3 protein (recombinant human …); test: ELISA blocking assay (blocked partner not stated), in-use stability bag #1, 2 h
[19] = target: T1, human Gal3 protein (recombinant human …); test: ELISA biological activity, long-term stability 5°C, 3 months
[20] = target: T1, human Gal3 protein (recombinant human …); test: ELISA blocking assay (blocked partner not stated), in-use stability bag #2, 2 h
[21] = target: T1, human Gal3 protein (recombinant human …); test: ELISA blocking assay (blocked partner not stated), in-use stability bag #2, 0 h
[22] = target: T1, human Gal3 protein (recombinant human …); test: ELISA blocking assay (blocked partner not stated), in-use stability bag #2, 1 h
[23] = target: T1, human Gal3 protein (recombinant human …); test: ELISA blocking assay (blocked partner not stated), in-use stability bag #1, 1 h
[24] = target: T1, human Gal3 protein (recombinant human …); test: ELISA biological activity, long-term stability 5°C, 1 month
[25] = target: T1, human Gal3 protein (recombinant human …); test: ELISA blocking assay (blocked partner not stated), in-use stability bag #1, 4 h

T1 sequence (P17931 2-250 limits assumed): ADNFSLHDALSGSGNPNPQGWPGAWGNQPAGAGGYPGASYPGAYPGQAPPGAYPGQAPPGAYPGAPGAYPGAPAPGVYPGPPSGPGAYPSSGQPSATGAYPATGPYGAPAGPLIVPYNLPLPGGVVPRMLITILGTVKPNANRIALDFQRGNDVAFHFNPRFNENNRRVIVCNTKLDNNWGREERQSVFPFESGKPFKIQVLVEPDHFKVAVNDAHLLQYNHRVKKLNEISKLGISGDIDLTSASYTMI
mouse Gal3, sequence (P16110 2-264 limits assumed): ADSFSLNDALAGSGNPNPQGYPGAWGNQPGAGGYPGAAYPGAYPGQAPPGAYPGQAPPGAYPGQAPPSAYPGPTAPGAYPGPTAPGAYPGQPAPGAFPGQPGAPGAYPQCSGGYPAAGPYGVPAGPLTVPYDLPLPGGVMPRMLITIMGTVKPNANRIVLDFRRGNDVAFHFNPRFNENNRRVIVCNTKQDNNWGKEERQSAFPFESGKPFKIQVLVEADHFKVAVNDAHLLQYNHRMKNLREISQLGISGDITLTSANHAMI

B1: TB006 (antibody, human IgG4 S228P, kappa, V domains shown)
VH: QVQLVQSGAEVKKPGASVKVSCKASGYSFTNYYMHWVRQAPGQRLEWMGWIYPGSGNTNYNEKFQGRVTITADTSASTAYMELSSLRSEDTAVYYCSTAPGGFDVWGQGTTVTVSS
VL: DIVMTQTPLSLSVTPGQPASISCKSSKSLLHSDGITYLYWYLQKPGQSPQLLIYRMSNLASGVPDRFSGSGSGTDFTLKISRVEAEDVGVYYCAQMLEFPLTFGQGTKLEIKR
notes: also called 4A11.H3L1; IMT006a
Q: With B1 as the binder, how does the Kd [1] read?
A: 3 nM

Q: What about the Kd [2] of the same binder?
A: 3 nM

Q: What about the IC50 [3] of the same binder?
A: 1.34 µg/mL

Q: And the “% inhibition of CD62L shedding” value [4]?
A: 76.1%

Q: What about the IC50 [5] of the same binder?
A: 1.01 µg/mL

Q: And the IC50 [6]?
A: 1.5 µg/mL

Q: And the IC50 [7]?
A: 1.8 µg/mL

Q: And the IC50 [8]?
A: 1.66 µg/mL

Q: What about the Kd [9] of the same binder?
A: 3.1 nM

Q: What about the “IC50 of blocking IL-6 secretion by HL60-derived neutrophils (rhGal3 + LPS)” value [10] of the same binder?
A: 33.7 nM

Q: What about the “IC50 of blocking TNFα secretion by HL60-derived neutrophils (rhGal3 + LPS)” value [10] of the same binder?
A: 11.1 nM

Q: And the IC50 [11]?
A: 1.35 µg/mL

Q: What about the Kd [12] of the same binder?
A: 8.9 nM

Q: What about the Kd (mouse Gal3) of the same binder?
A: 40000 nM

Q: And the Kd [13]?
A: 2.5 nM

Q: What about the IC50 [14] of the same binder?
A: 2.5 µg/mL

Q: What about the IC50 [15] of the same binder?
A: 2.5 µg/mL

Q: What about the Kd [16] of the same binder?
A: 3 nM

Q: And the Kd [17]?
A: 2.5 nM

Q: What about the IC50 [18] of the same binder?
A: 1.71 µg/mL

Q: And the IC50 [19]?
A: 1.5 µg/mL

Q: What about the IC50 [20] of the same binder?
A: 1.67 µg/mL

Q: What about the IC50 [21] of the same binder?
A: 1.05 µg/mL

Q: And the IC50 [22]?
A: 1.63 µg/mL

Q: What about the IC50 [23] of the same binder?
A: 1.43 µg/mL

Q: What about the IC50 [24] of the same binder?
A: 1.8 µg/mL

Q: What about the IC50 [25] of the same binder?
A: 1.41 µg/mL
